Where a SMILES comes first, the peptide text is derived from it. Bridges are numbered along the chain shown (N, C = ends). Where no end group is shown, it is not given here. The star is where a group is joined. DOTA = O=C(O)CN1CCN(CC(=O)O)CCN(CC(=O)*)CCN(CC(=O)O)CC1; 125I = iodine-125 label on tyrosine, [125I]*
Experiments:
[1] = PET/CT scan of HNSCC tumor patient with SFLAP3; type: in vivo, human; conditions: human, right cervical lesion, iv, 322 MBq, total radioactivity; read-out: SUVmax right cervical lesion
Source text: (§1) The emission data were corrected for randoms, scatter and decay. […] The quantitative assessment of tracer accumulation was done using a region of interest technique and using standardized uptake values (SUV).

[2] = system: HNSCC tumor; assay: PET/CT scan of HNSCC tumor patient with SFLAP3; type: in vivo, human
Source text: as §1

[3] = Small-animal PET imaging, HNO223 xenografts; set-up: species or system mice; conditions: Balb/c nude, mouse, in vivo, iv, total radioactivity; 60 min after injection; read-out: SUVmean in tumor
[4] = Small-animal PET imaging, HNO399 xenografts; set-up: species or system mice; conditions: Balb/c nude, mouse, in vivo, iv, total radioactivity; 60 min after injection; read-out: SUVmean in tumor
[5] = system: Capan-2 xenografts; assay: Small-animal PET imaging, Capan-2 xenografts; type: in vivo, mice; conditions: 25 MBq
Experimental: 6 to 8 week old Balb c/c nude mice (Charles River Lab.) were inoculated with 5*10^6 Capan-2 cells in 100 μl Opti-MEM medium. After 4 to 6 weeks the tumor has grown 10-15 mm in diameter. For small animal PET imaging 25 MBq of the ^68Ga-labeled peptide (2 nmol) was injected into the tail vein.

[6] = system: metastasized pancreatic cancer; assay: PET/CT and scintigraphy of pancreatic cancer patient; type: in vivo, human; conditions: 1 and 3 hours after injection
Experimental: PET/CT scans of tumor patients and body scintigraphy were performed as described in Example 1.

[7] = Small-animal PET imaging, HNO97 xenografts; conditions: Balb/c nude, mouse, in vivo, iv, total radioactivity
Experimental: All experiments were conducted in compliance with the German animal protection laws. Eight week old Balb c/c nude mice (Charles River Laboratories) were inoculated subcutaneously at the right shoulder with 5×10^6 HNO97 cells in BD MatriGel™ (BD Bioscience). Xenografts were grown to a tumor diameter of 10-15 mm. For small animal-PET imaging mice were anesthetized using isoflurane inhalation and injected via tail-vein with 50 MBq (2 nmol) of the ^68Ga-labeled DOTA-SFITGv6 peptide (see above) solution in 100 μL PBS. Images were recorded on an Inveon small-animal PET scanner (Siemens) using a 60 min emission scan in list mode and a 10 min transmission scan. Images were taken in 3-dimensional (3D) mode and reconstructed iteratively with a fully 3D algorithm from a 256×256 matrix for viewing transaxial, coronal, and sagittal slices of 0.9 mm thickness. Pixel size was 0.38×0.38×0.79 mm3 and transaxial resolution obtained was 0.9 mm. For blocking experiments 100 μL of a 1 mM aqueous solution of SFITGv6 was pre-administered intraperitoneally 30 min before injection of the radiolabeled peptide. Biodistribution studies were performed after administration of 100 μL of a 20 nM ^177Lu-DOTA-SFITGv6 solution (1 MBq) as an intravenous bolus injection into the tail vein of the mice. After different time points (30 min to 6 hours) three animals, respectively, were sacrificed. Peripheral blood, heart, lung, spleen, liver, kidneys, muscle, brain, intestine, and injection site (tail, after intravenous injection only) were collected and weighted. Tissue-associated radioactivity was measured in a gamma counter (Berthold LB951G) and expressed as percentage of the injected dose per gram tissue (% ID/g).
All animal experiments were conducted in compliance with the German animal protection laws. For in vivo small animal PET imaging and organ distribution studies eight-week old Balb/c nude mice (Charles River Laboratories) were inoculated subcutaneously at the right shoulder with a total of 5×10^6 tumor cells in MatriGel (BD Bioscience). Xenografts were grown until a tumor diameter of 10-15 mm was reached.
3-dimensional (3D) PET images of whole mice were captured by the Siemens Inveon PET scanner as described in Example 1. To assess the biodistribution 100 μL of a 20 nM solution (1 MBq) of ^177Lu-DOTA-SFLAP3 and ^177Lu-DOTA-SFITGv6 were administered as an intravenous bolus injection into the tail vein of mice. For each time point (30 min to 6 hours) we sacrificed a total of three animals, and subsequently collected peripheral blood, heart, lung, spleen, liver, kidneys, muscle, brain, and intestine. Tissues were weighed and respective radioactivity was measured by a gamma counter (LB951G, Berthold Technologies). Values were expressed as percentage of the injected dose radioactivity (MBq) per gram tissue (% ID/g).

[8] = system: Capan-2 cells; assay: In vitro binding, internalization and efflux on Capan-2 cells; type: cell-based, human; conditions: 60 min
Experimental: (§2) For in vitro binding Studies, 4*10^5-6*10^5 cells were seeded in 6 well plates and cultivated for 24 to 48 hours. At the start of the experiment the medium was replaced with 1 ml serum free medium with a definite amount of radioactive labeled peptide per well. For normal binding assays the cells were incubated for 60 min at 37° C. and afterwards washed 3 times with PBS (pH 7.4). Cells were lysed with 2 times 0.5 ml of a 0.3 M NaOH +0.2% SDS lysis-buffer. Competition assays were performed with ^125I-labeled and unlabelled (10^−6 to 10^−11M) peptide and incubated at the same time for 60 min.
Cells were incubated for 10 to 240 min with ^177Lu-labelled peptide in internalization assays. After the washing steps, the cells were incubated with 1 ml glycine-HCl (1 M, pH 2.2) buffer for 10 min to remove surface bound peptide. Prior to the lyses the cells were washed again. Values are given as percentage of applied dose per 10^6 cells.
The efflux was tested with ^177Lu-labeled peptides. After 60 min incubation the radioactive medium was removed and 1 ml fresh serum-free medium was added. After additional incubation of 60, 120 or 240 min, cell bound activity was measured.

[9] = system: OV433 and OV429; assay: In vitro binding on ovarian cancer cell lines; type: cell-based, human; conditions: highest binding among tested ovarian cell lines
Experimental: as §2

[10] = system: carcinoma cell lines; assay: In vitro binding of radiolabeled peptides to several carcinoma cell lines; type: cell-based, human; conditions: 10^−6 M competitor; all tested HNSCC cell lines
Experimental: For binding studies, 2.5×10^5 to 4×10^5 cells were seeded in 6-well plates and cultivated for 48 hours. Cells were incubated for 60 min with 1 mL serum-free medium containing the ^125I-labeled peptide (see above). For competition experiments, cells were simultaneously exposed to unlabeled (10^-4 M to 10^-10 M) and ^125I-labeled peptides. After three washing steps with PBS (pH 7.4) the cells were lysed with 0.5 mL of 0.3 M NaOH. Experiments concerning the internalization, kinetics and efflux were additionally performed with ^177Lu-DOTA-SFITGv6. To evaluate kinetics and efflux HNO97 cells were incubated for different time intervals (10 min to 480 min) and 60 min, respectively, with ^177Lu-DOTA-SFITGv6 and lysed as described. To continue with the efflux experiment radioactive medium was replaced by non-radioactive medium and cells were incubated again for 60 to 240 min before measuring radioactivity of the cell lysates and the medium. For internalization experiments the cells were exposed to ^177Lu-DOTA-SFITGv6 for different time intervals (10 to 240 min) at 37° C. and 4° C. After three washing steps with PBS the cells were incubated with 1 mL of glycine-HCl 50 mmol/L in PBS (pH 2.8) for 10 min at RT to remove the surface bound activity. Then, cells were washed with 3 mL of ice-cold PBS and lysed as described. Radioactivity was determined in a gamma counter and calculated as percentage of the applied dose per 1×10^6 cells. Experiments were performed three times, and three repetitions per independent experiment were acquired.
(§3) For the assessment of the peptide binding capacity in vitro, 2.5-4×10^5 cells were seeded into 6-well plates and cultivated for 48 h. ^125I-labeled peptide resuspended in 1 mL serum-free medium was added and incubated for either 10 min or 60 min with or without different concentrations of unlabeled peptide (10^−4-10^−11 M). Afterwards, cell monolayers were washed three times with 1 mL phosphate-buffered saline (pH 7.4) to remove unbound peptide and the cells were harvested with 1.4 mL lysis buffer (0.3 M NaOH). To evaluate kinetic properties the cells were exposed to ^177Lu-DOTA-labeled peptides for 10, 30, 60, 120, and 240 min, respectively, and lysed as described. For the efflux experiments the cells were incubated with ^177Lu-DOTA-labeled peptides for 60 min. Thereafter, radioactive medium was replaced by non-radioactive medium and cell monolayers were incubated for additional 60, 120, and 240 min and afterwards lysed as described earlier. The internalization was assessed after exposure of the cells to ^177Lu-DOTA-labeled peptides for 10, 30, 60, 120, and 240 min at 37° C. Unspecifically bound peptide was removed from the surface by incubation with 1 M glycine-HCl solution (pH 2.2) for 10 min. The monolayer cell was rinsed with PBS and cells were lysed as described before. Radioactivity was determined in a y-counter and calculated as percentage of the applied dose per 1×10^6 cells. Experiments were performed three times, and three repetitions per independent experiment were acquired.

[11] = system: HNO399 cells; assay: In vitro binding on HNO399 cells; type: cell-based, human; conditions: 60 min; percent applied dose/10^6 cells
Experimental: as §3, with “To evaluate kinetic properties the cells were exposed to ^177Lu-DOTA-labeled peptides for 10, 30, 60, 120, and 240 min, respectively, and lysed as described.” left out, “The internalization was assessed after exposure of the cells to ^177Lu-DOTA-labeled peptides for 10, 30, 60, 120, and 240 min at 37° C.” left out

CC(C)C[C@@H]1NC(=O)[C@H](CC(=O)O)NC(=O)CNC(=O)[C@H](CCCNC(=N)N)NC(=O)CNC(=O)[C@H]([C@@H](C)O)NC(=O)[C@@H](NC(=O)[C@H](CCCNC(=N)N)NC(=O)CNC(=O)CN2CCN(CC(=O)O)CCN(CC(=O)O)CCN(CC(=O)O)CC2)CSSC[C@@H](C(=O)N[C@@H](Cc2ccc(O)cc2)C(=O)N2CCC[C@H]2C(=O)N[C@@H](CC(=O)O)C(N)=O)NC(=O)[C@H](CC(C)C)NC(=O)[C@H](CCCNC(=N)N)NC(=O)CNC1=O [^68Ga-DOTA-SFLAP3, metal not drawn] ({DOTA}-GRCTGRGDLGRLCYPD-NH2; disulfide 3-13; N-terminus and C-terminus assumed)
SUV [1]: 4.1 SUV
SUVmax Bight kidney ([2]; 60 min): 22.43
SUVmax Blood pool (mediast.) ([2]; 60 min): 0.99
SUVmax Cerebral parietal ([2]; 60 min): 0.05
SUVmax Colon ascendens ([2]; 60 min): 9.2
SUVmax Colon descendens ([2]; 60 min): 3.75
SUVmax Duodenum ([2]; 60 min): 6.31
SUVmax Hilar lymph nodes ([2]; 60 min): 4.07
SUVmax Ileum ([2]; 60 min): 4.07
SUVmax Jejunum ([2]; 60 min): 10.46
SUVmax Kidney (left) ([2]; 60 min): 60.52
SUVmax Liver (left) ([2]; 60 min): 0.67
SUVmax Liver (right) ([2]; 60 min): 0.73
SUVmax Lung (left) ([2]; 60 min): 0.36
SUVmax Lung (right) ([2]; 60 min): 0.33
SUVmax Muscle (glut.) ([2]; 60 min): 1.94
SUVmax Os ileum ([2]; 60 min): 0.53
SUVmax Pancreas head ([2]; 60 min): 2.3
SUVmax Plexus choroideus ([2]; 60 min): 1.06
SUVmax Spleen ([2]; 60 min): 0.54
SUVmax Stomach ([2]; 60 min): 12.65
SUVmax Thyroid ([2]; 60 min): 3.27
SUVmax Tumor ([2]; 60 min, listed as 68Ga-DOTA labeled SFLAP3): 5.07
SUVmax Tumor ([2]; 60 min, listed as 68Ga-DOTA-labled SFLAP3): 5.1
SUVmax Bight kidney ([2]; 180 min): 26.41
SUVmax Blood pool (mediast.) ([2]; 180 min): 1.05
SUVmax Cerebral parietal ([2]; 180 min): 0.27
SUVmax Colon ascendens ([2]; 180 min): 19.37
SUVmax Colon descendens ([2]; 180 min): 2.97
SUVmax Duodenum ([2]; 180 min): 8.91
SUVmax Hilar lymph nodes ([2]; 180 min): 4.15
SUVmax Ileum ([2]; 180 min): 17.65
SUVmax Jejunum ([2]; 180 min): 9.2
SUVmax Kidney (left) ([2]; 180 min): 36.85
SUVmax Liver (left) ([2]; 180 min): 0.76
SUVmax Liver (right) ([2]; 180 min): 0.75
SUVmax Lung (left) ([2]; 180 min): 0.46
SUVmax Lung (right) ([2]; 180 min): 0.33
SUVmax Muscle (glut.) ([2]; 180 min): 1.92
SUVmax Os ileum ([2]; 180 min): 0.47
SUVmax Pancreas head ([2]; 180 min): 2.62
SUVmax Plexus choroideus ([2]; 180 min): 1.57
SUVmax Spleen ([2]; 180 min): 0.8
SUVmax Thyroid ([2]; 180 min): 3.24
SUVmax Tumor ([2]; 180 min): 4.64
SUV at 1 h [3]: 0.32 SUV
SUV at 1 h [4]: 0.44 SUV
time p.i. at which tracer accumulation was seen in the tumor [5]: 20 min
PET/CT accumulation in tumor lesions [6]: high accumulation over 3 hours into the tumor lesions
SUV at 1 h [7]: 0.63 SUV

^125I-SFLAP3: ^125I-labeled SFLAP3 (GRCTGRGDLGRLCY(125I)PD; disulfide 3-13)
^125I-SFLAP3 binding value [8]: 14%
binding of ^125I-SFLAP3 [9]: 5%
competition of binding by non-radioactively labeled counterpart [10]: almost completely competed
binding of ^125I-labeled peptide [11]: 10.1%
